# Measurements: publication PMC10338342 (2023)
# Tests used:
# [1] = biological target: T1, nucleosome core particle: human histone octamer (H2A, H2B, H3.1, H4) wrapped by DNA (human, UniProt P04908 1-130; P06899 1-126; P68431 1-136; P62805 1-103); experiment: FRET; NCP SHL-6.2; competition with His-MYC-MAX (800 nM)
# [2] = biological target: T1, nucleosome core particle: human histone …; experiment: FRET; NCP SHL+5.8; competition with His-MYC-MAX (625 nM)
IC50 [1],IC50 [2],Binder
> 3000 nM,–,CLOCK-BMAL1 bHLH PAS-AB heterodimer with BMAL1 R173A (complex) chain 1: VEEDDKDKAKRVSRNKSEKKRRDQFNVLIKELGSMLPGNARKMDKSTVLQKSIDFLRKHKETTAQSDASEIRQDWKPTFLSNEEFTQLMLEALDGFFLAIMTDGSIIYVSESVTSLLEHLPSDLVDQSIFNFIPEGEHSEVYKILSTHLLESDSLTPEYLKSKNQLEFCCHMLRGTIDPKEPSTYEYVRFIGNFKSLTSVSTSTHNGFEGTIQRTHRPSYEDRVCFVATVRLATPQFIKEMCTVEEPNEEFTSRHSLEWKFLFLDHRAPPIIGYLPFEVLGTSGYDYYHVDDLENLAKCHEHLMQYGKGKSCYYRFLTKGQQWIWLQTHYYITYHQWNSRPEFIVCTHTVVSYAEVRAERRRELGIEESL chain 2: not shown
> 3000 nM,–,CLOCK-BMAL1 bHLH PAS-AB heterodimer with BMAL1 Q385A (complex) chain 1: VEEDDKDKAKRVSRNKSEKKRRDQFNVLIKELGSMLPGNARKMDKSTVLQKSIDFLRKHKETTAQSDASEIRQDWKPTFLSNEEFTQLMLEALDGFFLAIMTDGSIIYVSESVTSLLEHLPSDLVDQSIFNFIPEGEHSEVYKILSTHLLESDSLTPEYLKSKNQLEFCCHMLRGTIDPKEPSTYEYVRFIGNFKSLTSVSTSTHNGFEGTIQRTHRPSYEDRVCFVATVRLATPQFIKEMCTVEEPNEEFTSRHSLEWKFLFLDHRAPPIIGYLPFEVLGTSGYDYYHVDDLENLAKCHEHLMQYGKGKSCYYRFLTKGQQWIWLQTHYYITYHQWNSRPEFIVCTHTVVSYAEVRAERRRELGIEESL chain 2: not shown
1180 nM,2320 nM,CLOCK-BMAL1 bHLH PAS-AB heterodimer (complex) chain 1: VEEDDKDKAKRVSRNKSEKKRRDQFNVLIKELGSMLPGNARKMDKSTVLQKSIDFLRKHKETTAQSDASEIRQDWKPTFLSNEEFTQLMLEALDGFFLAIMTDGSIIYVSESVTSLLEHLPSDLVDQSIFNFIPEGEHSEVYKILSTHLLESDSLTPEYLKSKNQLEFCCHMLRGTIDPKEPSTYEYVRFIGNFKSLTSVSTSTHNGFEGTIQRTHRPSYEDRVCFVATVRLATPQFIKEMCTVEEPNEEFTSRHSLEWKFLFLDHRAPPIIGYLPFEVLGTSGYDYYHVDDLENLAKCHEHLMQYGKGKSCYYRFLTKGQQWIWLQTHYYITYHQWNSRPEFIVCTHTVVSYAEVRAERRRELGIEESL chain 2: not shown
